Measurements from PMC8978939, “VHL-P138R and VHL-L163R Novel Variants: Mechanisms of VHL Pathogenicity Involving HIF-Dependent and HIF-Independent Actions” (Frontiers in Endocrinology, 2022).

Legend:
VHL-L163R-Venus = molecular target: T1, VHL-L163R-Venus (human, UniProt P40337 1-213, L163R); experiment: co-IP; GFP-Trap_A kit on 1 mg protein from 786-0 cell lines stably expressing VHL-Venus (WT, P138R, L163R) or GFP; Western blot for Elongin B and Elongin C; band ratios Elongin/pVHL normalised to WT set as 1; conditions: partners not purified
T1 construct: von Hippel-Lindau protein (pVHL), human, patient variant L163R (CTC to CGC) made by site-directed mutagenesis of VHL-WT-Venus-Retro; Variant found in patients with VHL disease (type 2C); also called L163R VHL-Venus; L163R pVHL

VHL-P138R-Venus = molecular target: T2, VHL-P138R-Venus (human, UniProt P40337 1-213, P138R); experiment: as above; conditions: partners not purified
T2 construct: von Hippel-Lindau protein (pVHL), human, patient variant P138R (CCA to CGA) made by site-directed mutagenesis of VHL-WT-Venus-Retro; Variant found in patients with VHL disease (type 2B); also called P138R VHL-Venus; P138R pVHL
T2 sequence (P40337 whole entry P138R): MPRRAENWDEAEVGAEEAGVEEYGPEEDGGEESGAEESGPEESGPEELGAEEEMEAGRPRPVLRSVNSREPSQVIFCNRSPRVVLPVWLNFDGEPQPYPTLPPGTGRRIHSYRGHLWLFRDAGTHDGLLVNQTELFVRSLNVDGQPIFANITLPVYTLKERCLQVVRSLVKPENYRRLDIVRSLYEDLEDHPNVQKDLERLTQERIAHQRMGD

T1 sequence (P40337 whole entry L163R): as the sequence (P40337 whole entry P138R) above, with R138P, L163R counted along it

ratio Elongin B/pVHL, normalised to WT pVHL set as 1 (VHL-L163R-Venus): 0.25
ratio Elongin B/pVHL, normalised to WT pVHL set as 1 (VHL-P138R-Venus): ~0.6
B1: Elongin B (natural protein, human (endogenous in 786-0), UniProt Q15370 1-118, looked up)
chain: MDVFLMIRRHKTTIFTDAKESSTVFELKRIVEGILKRPPDEQRLYKDDQLLDDGKTLGECGFTSQTARPQAPATVGLAFRADDTFEALCIEPFSSPPELPDVMKPQDSGSSANEQAVQ
notes: also called EloB; source: endogenous, 786-0 RCC cell lysate
